pKd: −log10 of the molar value.
How the values were obtained:
Experiment in all cases: IEDB peptide-MHC binding, purified MHC/competitive/radioactivity; filed as Kd, often an IC50 or EC50 that approximates it; ≥ and ≤ were set here for values at or beyond the usual limits of such assays
Settings in all cases: source organism: Toxoplasma gondii
HLA-A*02:02 = target: HLA-A*02:02
HLA-A*02:06 = target: HLA-A*02:06
HLA-A*68:02 = target: HLA-A*68:02
HLA-A*02:01 = target: HLA-A*02:01
HLA-A*02:03 = target: HLA-A*02:03

Sequence | pKd (HLA-A*02:02) | pKd (HLA-A*02:06) | pKd (HLA-A*68:02) | pKd (HLA-A*02:01) | pKd (HLA-A*02:03)
FMIAFISCFA | 7.25 | 6.95 | 6.40 | 7.49 | 7.25
GLAAAVVAV | 7.51 | 7.26 | 6.58 | 8.02 | 8.89
FLLGLLVHV | 7.43 | 8.00 | 6.76 | 8.19 | 8.34
FVIFACNFV | 7.96 | 8.25 | 8.92 | 7.47 | 8.19
FMIVSISLV | 8.74 | 8.21 | 7.32 | 7.80 | ≥ 9.00
ITMGSLFFV | 9.19 | 9.59 | 8.96 | 9.80 | 9.30
FLSLSLLVI | 6.76 | ≤ 5.00 | 5.01 | 6.13 | 7.08
FLTDYIPGA | 8.15 | 8.92 | 5.68 | 9.15 | 8.11
